Results on six molecules are retold here after article doi:10.1101/382655.

Where a chain is given by its changes, count along the chain named. Like-named read-outs stand apart in the source and are kept apart here.

Data set [1] deals with T1, Integration host factor (IHF) (UniProt P0A6X7;P0A6Y1 2-99;1-94). Kind of data set: equilibrium fluorescence titration.
Data set [2] deals with T1, Integration host factor (IHF). Briefly: equilibrium fluorescence titration, extrapolated.
For data set [3] the target is unchanged. Briefly: fluorescence lifetime FRET.
The target is the same in data set [4]. Kind of data set: fluorescence lifetime FRET. The source holds these as a separate data set.

T1 sequence (P0A6X7 2-99, chain 1 of 2): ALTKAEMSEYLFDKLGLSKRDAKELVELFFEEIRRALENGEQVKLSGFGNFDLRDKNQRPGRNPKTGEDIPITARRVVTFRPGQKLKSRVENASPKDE
T1 sequence (P0A6Y1 whole entry, chain 2 of 2): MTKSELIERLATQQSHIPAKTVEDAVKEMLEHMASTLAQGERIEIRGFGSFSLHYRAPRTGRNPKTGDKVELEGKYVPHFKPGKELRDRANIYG

B1: H' (design I) (dsDNA)
DNA 1: TGGCCAAAAAAGCATTGCTTATCAATTTGTTGCACC
DNA 2: TGGTGCAACAAATTGATAAGCAATGCTTTTTTGGCC
The Kd is the concentration at which binding is half-saturated. With B1, the values for the Kd in data set [1] and in data set [2] were 1900 ± 100 nM and 0.023 nM, respectively.

B2: H'44A (design I) (dsDNA)
DNA 1: B1 DNA 1 with T31A
DNA 2: B1 DNA 2 with A7T
As to B2, in data set [3], the binding result was “binds”.

B3: H1 (design II) (dsDNA)
DNA 1: GGCCATGCAGTCACTATGAATCAACTACTTAGACC
DNA 2: GGTCTAAGTAGTTGATTCATAGTGACTGCATGGCC
modifications: 3' phosphate link on bottom strand (to dye)
In data set [1], B3 registered a Kd of 1990 ± 50 nM.

B4: H1_CTloop (design I) (dsDNA)
DNA 1: TGGCCATGCAGTCACTATGAATCAACTACTTAGACC
DNA 2: TGGTCTAAGTAGTTGATTCATTCTGACTGCATGGCC
On to B4, for which binding in data set [1] was characterised by a dissociation constant (Kd) of 16 ± 3 nM.

B5: H1 (design I) (dsDNA)
DNA 1: B4 DNA 1
DNA 2: B4 DNA 2 with T22A, C23G
Turning to B5, the binding result in data set [4] was “binds”.

B6: H' (design II) (dsDNA)
DNA 1: GGCCAAAAAAGCATTGCTTATCAATTTGTTGCACC
DNA 2: GGTGCAACAAATTGATAAGCAATGCTTTTTTGGCC
modifications: 3' phosphate link on bottom strand (to dye)
As to B6, the Kd in data set [1] worked out at 1500 ± 200 nM.
